Measurements: patent US20140087995A1 (published 2014)
Numbered stars: 1 amine (or outer) side, 2 acyl side, 3 side chain; on linkers, the order of the positions; unused ones are H or OH. Bridge positions count the residues as written; N and C are the ends. Side chains are listed from the residue outwards. Ends that are not written are not given here. * marks the point of attachment. C20 diacid = O=C(O)CCCCCCCCCCCCCCCCCCC(=O)*; γGlu = O=C(O)[C@H](CCC(=O)[*:2])N[*:1]; AEEA = NCCOCCOCC(=O)O

Key:
[1] = biological target: T1, rat amylin receptor (rat calcitonin receptor + rat RAMP 3) (rat, UniProt P32214 25-516; Q9JJ73 23-147); assay: SPA competition vs 125I-rat amylin, membranes with rat CTR + rat RAMP3 (Assay VI)
T1 construct: whole, on cells; Cell membranes of transiently transfected BHK tk'ts 13 cells (Assay VI); also called rAmylin-R; rat amylin 3(a) receptor
T1 sequence (looked up) 1: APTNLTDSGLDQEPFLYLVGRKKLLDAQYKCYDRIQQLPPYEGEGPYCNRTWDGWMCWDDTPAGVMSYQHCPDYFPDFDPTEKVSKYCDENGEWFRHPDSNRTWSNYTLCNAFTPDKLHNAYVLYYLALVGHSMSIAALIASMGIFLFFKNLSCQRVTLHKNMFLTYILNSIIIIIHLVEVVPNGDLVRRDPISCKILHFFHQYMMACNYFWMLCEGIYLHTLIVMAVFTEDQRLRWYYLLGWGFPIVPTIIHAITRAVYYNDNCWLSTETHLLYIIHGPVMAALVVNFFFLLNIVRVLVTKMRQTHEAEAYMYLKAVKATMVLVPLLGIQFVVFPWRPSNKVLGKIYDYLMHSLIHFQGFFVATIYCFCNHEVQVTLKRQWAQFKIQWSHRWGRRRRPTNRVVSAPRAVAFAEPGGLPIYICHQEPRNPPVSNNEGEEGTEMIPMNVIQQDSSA
T1 sequence (looked up) 2: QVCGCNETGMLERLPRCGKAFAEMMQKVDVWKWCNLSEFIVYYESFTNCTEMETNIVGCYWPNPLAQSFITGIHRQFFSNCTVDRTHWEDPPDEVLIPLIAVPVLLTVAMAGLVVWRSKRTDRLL

rat calcitonin receptor = biological target: T2, rat calcitonin receptor (rat, UniProt P32214 25-516); assay: SPA competition vs 125I-calcitonin, membranes with rat CTR (Assay VIII)
T2 construct: whole, on cells; Cell membranes of transiently transfected BHK tk'ts 13 cells (Assay VIII); also called rCTR; rCT
T2 sequence (looked up): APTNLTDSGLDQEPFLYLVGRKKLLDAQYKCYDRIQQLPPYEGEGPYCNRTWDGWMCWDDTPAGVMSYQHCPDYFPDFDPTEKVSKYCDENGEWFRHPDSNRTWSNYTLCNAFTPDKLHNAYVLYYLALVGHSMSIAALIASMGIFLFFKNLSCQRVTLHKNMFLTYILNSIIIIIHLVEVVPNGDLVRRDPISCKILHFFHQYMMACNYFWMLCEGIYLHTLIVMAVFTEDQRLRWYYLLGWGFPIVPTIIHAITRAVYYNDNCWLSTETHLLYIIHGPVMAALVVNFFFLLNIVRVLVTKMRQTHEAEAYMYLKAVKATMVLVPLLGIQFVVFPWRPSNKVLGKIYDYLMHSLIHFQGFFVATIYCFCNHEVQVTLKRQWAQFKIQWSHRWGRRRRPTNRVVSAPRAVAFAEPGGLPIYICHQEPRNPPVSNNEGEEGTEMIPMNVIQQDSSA

[2] = biological target: T3, human amylin receptor (amylin 3(a) receptor: human calcitonin receptor coexpressed with RAMP-3) (human, UniProt P30988 25-474; O60896 24-148); assay: cell-based or functional assay
T3 sequence (looked up) 1: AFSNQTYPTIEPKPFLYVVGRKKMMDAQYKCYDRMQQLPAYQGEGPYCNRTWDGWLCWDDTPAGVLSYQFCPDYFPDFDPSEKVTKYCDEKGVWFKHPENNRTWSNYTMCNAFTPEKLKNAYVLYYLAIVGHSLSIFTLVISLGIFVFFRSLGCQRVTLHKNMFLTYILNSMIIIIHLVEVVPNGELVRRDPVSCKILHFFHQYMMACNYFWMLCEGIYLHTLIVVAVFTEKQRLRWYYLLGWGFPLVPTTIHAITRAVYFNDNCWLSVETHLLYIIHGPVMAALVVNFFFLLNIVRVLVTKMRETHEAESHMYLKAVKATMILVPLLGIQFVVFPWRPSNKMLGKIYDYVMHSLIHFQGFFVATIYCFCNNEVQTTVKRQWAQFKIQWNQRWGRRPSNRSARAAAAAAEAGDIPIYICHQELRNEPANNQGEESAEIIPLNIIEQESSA
T3 sequence (looked up) 2: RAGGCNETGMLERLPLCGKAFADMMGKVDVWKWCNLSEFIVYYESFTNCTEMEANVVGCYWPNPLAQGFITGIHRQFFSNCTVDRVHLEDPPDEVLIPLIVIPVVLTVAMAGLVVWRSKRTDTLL

[3] = biological target: T4, human calcitonin receptor (human, UniProt P30988 25-474); assay: cell-based or functional assay
T4 sequence (looked up): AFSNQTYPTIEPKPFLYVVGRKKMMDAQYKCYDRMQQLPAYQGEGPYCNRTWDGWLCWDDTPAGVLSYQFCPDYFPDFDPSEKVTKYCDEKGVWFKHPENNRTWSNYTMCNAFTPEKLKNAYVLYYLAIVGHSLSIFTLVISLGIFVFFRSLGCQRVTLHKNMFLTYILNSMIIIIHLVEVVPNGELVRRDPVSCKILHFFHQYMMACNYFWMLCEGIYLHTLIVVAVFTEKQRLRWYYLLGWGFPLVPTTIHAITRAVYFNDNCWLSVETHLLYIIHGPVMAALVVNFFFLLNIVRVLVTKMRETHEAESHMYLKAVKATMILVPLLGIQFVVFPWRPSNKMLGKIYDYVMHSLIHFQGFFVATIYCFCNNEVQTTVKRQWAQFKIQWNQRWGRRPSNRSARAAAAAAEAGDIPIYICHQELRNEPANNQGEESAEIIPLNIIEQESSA

Binder	IC50 [1] [nM]	IC50 (rat calcitonin receptor) [nM]	hAmylin-R funct. EC50 (pM) [2] [pM]	hCTR funct. EC50 (pM) [3] [pM]	Ratio hCT/hAmylin funct. [3]
K([AEEA-γGlu-C20 diacid])CNTATCATQRLANFLRHSSPNFGAIPSSTNVGSRTY-NH2 (disulfide 2-7; N-terminus assumed; SMILES CC[C@H](C)[C@H](NC(=O)[C@H](C)NC(=O)CNC(=O)[C@H](Cc1ccccc1)NC(=O)[C@H](CC(N)=O)NC(=O)[C@@H]1CCCN1C(=O)[C@H](CO)NC(=O)[C@H](CO)NC(=O)[C@H](Cc1c[nH]cn1)NC(=O)[C@H](CCCNC(=N)N)NC(=O)[C@H](CC(C)C)NC(=O)[C@H](Cc1ccccc1)NC(=O)[C@H](CC(N)=O)NC(=O)[C@H](C)NC(=O)[C@H](CC(C)C)NC(=O)[C@H](CCCNC(=N)N)NC(=O)[C@H](CCC(N)=O)NC(=O)[C@@H](NC(=O)[C@H](C)NC(=O)[C@@H]1CSSC[C@H](NC(=O)[C@@H](N)CCCCNC(=O)COCCOCCNC(=O)CC[C@H](NC(=O)CCCCCCCCCCCCCCCCCCC(=O)O)C(=O)O)C(=O)N[C@@H](CC(N)=O)C(=O)N[C@@H]([C@@H](C)O)C(=O)N[C@@H](C)C(=O)N[C@@H]([C@@H](C)O)C(=O)N1)[C@@H](C)O)C(=O)N1CCC[C@H]1C(=O)N[C@@H](CO)C(=O)N[C@@H](CO)C(=O)N[C@H](C(=O)N[C@@H](CC(N)=O)C(=O)N[C@H](C(=O)NCC(=O)N[C@@H](CO)C(=O)N[C@@H](CCCNC(=N)N)C(=O)N[C@H](C(=O)N[C@@H](Cc1ccc(O)cc1)C(N)=O)[C@@H](C)O)C(C)C)[C@@H](C)O, Acylated analogue of human amylin; also called compound 38)	0.383	38			
K([γGlu-γGlu-C20 diacid])CNTATCATQRLADFLRHSSPNFGAIPSSTNVGSRTY-NH2 (disulfide 2-7; N-terminus assumed; SMILES CC[C@H](C)[C@H](NC(=O)[C@H](C)NC(=O)CNC(=O)[C@H](Cc1ccccc1)NC(=O)[C@H](CC(N)=O)NC(=O)[C@@H]1CCCN1C(=O)[C@H](CO)NC(=O)[C@H](CO)NC(=O)[C@H](Cc1c[nH]cn1)NC(=O)[C@H](CCCNC(=N)N)NC(=O)[C@H](CC(C)C)NC(=O)[C@H](Cc1ccccc1)NC(=O)[C@H](CC(=O)O)NC(=O)[C@H](C)NC(=O)[C@H](CC(C)C)NC(=O)[C@H](CCCNC(=N)N)NC(=O)[C@H](CCC(N)=O)NC(=O)[C@@H](NC(=O)[C@H](C)NC(=O)[C@@H]1CSSC[C@H](NC(=O)[C@@H](N)CCCCNC(=O)CC[C@H](NC(=O)CC[C@H](NC(=O)CCCCCCCCCCCCCCCCCCC(=O)O)C(=O)O)C(=O)O)C(=O)N[C@@H](CC(N)=O)C(=O)N[C@@H]([C@@H](C)O)C(=O)N[C@@H](C)C(=O)N[C@@H]([C@@H](C)O)C(=O)N1)[C@@H](C)O)C(=O)N1CCC[C@H]1C(=O)N[C@@H](CO)C(=O)N[C@@H](CO)C(=O)N[C@H](C(=O)N[C@@H](CC(N)=O)C(=O)N[C@H](C(=O)NCC(=O)N[C@@H](CO)C(=O)N[C@@H](CCCNC(=N)N)C(=O)N[C@H](C(=O)N[C@@H](Cc1ccc(O)cc1)C(N)=O)[C@@H](C)O)C(C)C)[C@@H](C)O, Acylated analogue of human amylin; also called compound 52)	0.335	159			
K([AEEA-γGlu-C20 diacid])CNTATCATQRLANFLRHSSPNFGAIPSSTNVGHNTY-NH2 (disulfide 2-7; N-terminus assumed; SMILES CC[C@H](C)[C@H](NC(=O)[C@H](C)NC(=O)CNC(=O)[C@H](Cc1ccccc1)NC(=O)[C@H](CC(N)=O)NC(=O)[C@@H]1CCCN1C(=O)[C@H](CO)NC(=O)[C@H](CO)NC(=O)[C@H](Cc1c[nH]cn1)NC(=O)[C@H](CCCNC(=N)N)NC(=O)[C@H](CC(C)C)NC(=O)[C@H](Cc1ccccc1)NC(=O)[C@H](CC(N)=O)NC(=O)[C@H](C)NC(=O)[C@H](CC(C)C)NC(=O)[C@H](CCCNC(=N)N)NC(=O)[C@H](CCC(N)=O)NC(=O)[C@@H](NC(=O)[C@H](C)NC(=O)[C@@H]1CSSC[C@H](NC(=O)[C@@H](N)CCCCNC(=O)COCCOCCNC(=O)CC[C@H](NC(=O)CCCCCCCCCCCCCCCCCCC(=O)O)C(=O)O)C(=O)N[C@@H](CC(N)=O)C(=O)N[C@@H]([C@@H](C)O)C(=O)N[C@@H](C)C(=O)N[C@@H]([C@@H](C)O)C(=O)N1)[C@@H](C)O)C(=O)N1CCC[C@H]1C(=O)N[C@@H](CO)C(=O)N[C@@H](CO)C(=O)N[C@H](C(=O)N[C@@H](CC(N)=O)C(=O)N[C@H](C(=O)NCC(=O)N[C@@H](Cc1c[nH]cn1)C(=O)N[C@@H](CC(N)=O)C(=O)N[C@H](C(=O)N[C@@H](Cc1ccc(O)cc1)C(N)=O)[C@@H](C)O)C(C)C)[C@@H](C)O, also called compound 76)			297	7370	
K([AEEA-AEEA-γGlu-C20 diacid])CNTATCATQRLANFLRHSSPNFGAIPSSTPVGSNTY-NH2 (disulfide 2-7; N-terminus assumed; SMILES CC[C@H](C)[C@H](NC(=O)[C@H](C)NC(=O)CNC(=O)[C@H](Cc1ccccc1)NC(=O)[C@H](CC(N)=O)NC(=O)[C@@H]1CCCN1C(=O)[C@H](CO)NC(=O)[C@H](CO)NC(=O)[C@H](Cc1c[nH]cn1)NC(=O)[C@H](CCCNC(=N)N)NC(=O)[C@H](CC(C)C)NC(=O)[C@H](Cc1ccccc1)NC(=O)[C@H](CC(N)=O)NC(=O)[C@H](C)NC(=O)[C@H](CC(C)C)NC(=O)[C@H](CCCNC(=N)N)NC(=O)[C@H](CCC(N)=O)NC(=O)[C@@H](NC(=O)[C@H](C)NC(=O)[C@@H]1CSSC[C@H](NC(=O)[C@@H](N)CCCCNC(=O)COCCOCCNC(=O)COCCOCCNC(=O)CC[C@H](NC(=O)CCCCCCCCCCCCCCCCCCC(=O)O)C(=O)O)C(=O)N[C@@H](CC(N)=O)C(=O)N[C@@H]([C@@H](C)O)C(=O)N[C@@H](C)C(=O)N[C@@H]([C@@H](C)O)C(=O)N1)[C@@H](C)O)C(=O)N1CCC[C@H]1C(=O)N[C@@H](CO)C(=O)N[C@@H](CO)C(=O)N[C@H](C(=O)N1CCC[C@H]1C(=O)N[C@H](C(=O)NCC(=O)N[C@@H](CO)C(=O)N[C@@H](CC(N)=O)C(=O)N[C@H](C(=O)N[C@@H](Cc1ccc(O)cc1)C(N)=O)[C@@H](C)O)C(C)C)[C@@H](C)O, also called compound 96)			181	3800	21
K([AEEA-AEEA-γGlu-C20 diacid])CNTATCATQRLANFLRHSSPNFGAIPSSTNVGRNTY-NH2 (disulfide 2-7; N-terminus assumed; SMILES CC[C@H](C)[C@H](NC(=O)[C@H](C)NC(=O)CNC(=O)[C@H](Cc1ccccc1)NC(=O)[C@H](CC(N)=O)NC(=O)[C@@H]1CCCN1C(=O)[C@H](CO)NC(=O)[C@H](CO)NC(=O)[C@H](Cc1c[nH]cn1)NC(=O)[C@H](CCCNC(=N)N)NC(=O)[C@H](CC(C)C)NC(=O)[C@H](Cc1ccccc1)NC(=O)[C@H](CC(N)=O)NC(=O)[C@H](C)NC(=O)[C@H](CC(C)C)NC(=O)[C@H](CCCNC(=N)N)NC(=O)[C@H](CCC(N)=O)NC(=O)[C@@H](NC(=O)[C@H](C)NC(=O)[C@@H]1CSSC[C@H](NC(=O)[C@@H](N)CCCCNC(=O)COCCOCCNC(=O)COCCOCCNC(=O)CC[C@H](NC(=O)CCCCCCCCCCCCCCCCCCC(=O)O)C(=O)O)C(=O)N[C@@H](CC(N)=O)C(=O)N[C@@H]([C@@H](C)O)C(=O)N[C@@H](C)C(=O)N[C@@H]([C@@H](C)O)C(=O)N1)[C@@H](C)O)C(=O)N1CCC[C@H]1C(=O)N[C@@H](CO)C(=O)N[C@@H](CO)C(=O)N[C@H](C(=O)N[C@@H](CC(N)=O)C(=O)N[C@H](C(=O)NCC(=O)N[C@@H](CCCNC(=N)N)C(=O)N[C@@H](CC(N)=O)C(=O)N[C@H](C(=O)N[C@@H](Cc1ccc(O)cc1)C(N)=O)[C@@H](C)O)C(C)C)[C@@H](C)O, also called compound 95)			651	21500	33
